This experiment has as its target FcRn-biotin (UniProt P55899). Briefly: ELISA.

Sequence of FcRn-biotin (P55899 24-297, chain 1 of 2): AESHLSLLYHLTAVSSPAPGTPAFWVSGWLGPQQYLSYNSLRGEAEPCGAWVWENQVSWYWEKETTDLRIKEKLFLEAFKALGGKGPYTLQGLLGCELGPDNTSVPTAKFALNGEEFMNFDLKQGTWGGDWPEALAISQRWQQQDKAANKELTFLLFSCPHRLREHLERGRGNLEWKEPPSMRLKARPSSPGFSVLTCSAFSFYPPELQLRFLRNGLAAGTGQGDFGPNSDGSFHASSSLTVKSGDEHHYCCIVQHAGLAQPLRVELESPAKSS
Sequence of FcRn-biotin (main, as listed by the source, chain 2 of 2): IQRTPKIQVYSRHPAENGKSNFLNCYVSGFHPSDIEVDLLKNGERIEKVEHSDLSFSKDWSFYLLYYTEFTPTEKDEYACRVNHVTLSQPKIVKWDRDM

By EC50 is commonly meant the midpoint of the concentration-response curve. The substance LC-V205C (from UniProt P01834 1-107) gave a concentration for a half-maximal effect (EC50) of 315 nM.

The record behind these values is patent US20210069341A1.
